Where two headings read alike, the source gives them in different places.
Legend:
[1] = test system: optimally gapped salmon sperm DNA, dNTP's; experiment: Kinetic parameters of DNA polymerase α on gapped DNA (Lineweaver-Burk); type: biochemical; conditions: for Km: gapped salmon sperm DNA
Description: Characterization of Affinity. The four subunit-DNA polymerase α/primase complex was purified from human KB cells as described T. Wang et al., J. Biol. Chem. 259:1854 (1984) and used for comparison to the single polypeptide recombinant polymerase α for their respective affinities for dNTP, primer-terminus, and gapped DNA. Prior to the comparison, both the immunopurified recombinant single subunit-polymerase α and the four subunit-polymerase α/primase complex were stored in buffer containing 30% sucrose, 20% ethylene glycol, 50 mM Tris HCL, pH 8.6, 1 mM βME, 1 mM EDTA at −80° C. or stored on packed ice at 4° C.
(§1) The standard assay for DNA polymerase α with gapped DNA was performed according to P. A. Fisher and D. Korn, J. Biol. Chem 252:6528 1977). Reactions were performed using optimally gapped salmon sperm DNA in 20 mM Tris.HCl, pH 8.0, 2 mM β-mercaptoethanol (“βME”), 200 μg/ml BSA, 10 mM MgCl2, 50 μM dNTP's with [α-^32P]dATP as the label. One unit of DNA polymerase is defined as the amount of polymerase that incorporates 1 nmole of labeled dNTP into acid-insoluble DNA at 37° C. in 60 min. […] All Kinetic parameters were calculated from Lineweaver-Burk plots by the method of least squares. Km was calculated of the basis of 3′-OH primer termini.
The rate of catalysis of these two forms was also measured. The Kcat values determined for the two forms of polymerase α are of a similar order of magnitude.

[2] = test system: oligo(dT)12: poly(dA)290; experiment: Km for primer terminus; type: biochemical; conditions: oligo(dT)12: poly(dA)290, 2 mM MgCl2, 50 μM dTTP
Protocol: as §1

[3] = Thermostability: preincubation at 37° C. before assaying polymerase activity; type: physicochemical
Protocol: Thermosensitivity. The thermostability of the two forms of polymerase α was also compared; this was done by preincubation at 37° C. for various times before assaying polymerase activity. […] (data not shown). These decreases in polymerase activity was not due to proteolysis of the polymerase protein.

[4] = test system: lacZ α-complementing gene in M13mp2 DNA; experiment: DNA synthetic fidelity, forward mutation assay; type: biochemical; conditions: light blue and colorless plaques
Protocol: (§2) DNA Synthetic Fidelity. The fidelity of the single catalytic subunit and the four subunit polymerase α/primase was measured and compared. Three methods were used to measure a single round of gap filling synthesis within the lacZ α-complementing gene in M13mp2 DNA. See T. A. Kunkel et al. Mol. Cell. Biol. 9:4447 (1989). In all three assays, a gapped, double-stranded M13mp2 DNA is constructed which contains a single-stranded gap as the mutation target. The three assays are: (A) forward mutation assay, (B) opal codon reversion assay, and (C) assay for −1 base frame-shift.
(§3) The DNA synthetic mutational frequency and the error rate of the two forms of DNA polymerase α measured by these three methods are summarized in Table III. […] The DNA synthetic fidelity values obtained are also in agreement with the values previously determined for the four subunit polymerase α.

[5] = test system: lacZ α-complementing gene in M13mp2 DNA; experiment: DNA synthetic fidelity, base-substitution (opal codon) reversion assay; type: biochemical
Protocol: as §2, §3

[6] = test system: lacZ α-complementing gene in M13mp2 DNA; experiment: DNA synthetic fidelity, minus-one frame-shift reversion assay; type: biochemical
Protocol: as §2, §3

[7] = test system: matched 24 mer or mismatched 29 mer annealed to M13mp18 single stranded DNA; experiment: Proofreading exonuclease assay on primed M13mp18; type: biochemical; conditions: up to 30 minutes at 37° C.
Protocol: Proofreading exonuclease activity of the recombinant single subunit poymerase α was assayed with a singly primed M13mp18 template (SEQ ID NO:5), primed either with a matched 24 mer (SEQ ID NO:4) (FIG. 8B) or a mismatched 29 mer (SEQ ID NO:2) (FIG. 8A), each ^32P-labeled at the 5′ end by T4 polynucleotide kinase. The mismatched 29 mer (SEQ ID NO:2) contains 9 mismatched T's on the 3′ terminus. Correct proofreading of this 29 mer (SEQ ID NO:2) annealed to M13mp18 (SEQ ID NO:3) would produce a 20 mer in the absence of deoxynucleotide triphosphates (dNTPs).
To perform the assay, two oligonucleotides, the universal primer, a 24 mer (matched primer) and RD29 mer (mismatched primer), were 5′-end labeled with ^32P-ATP and annealed to M13mp18 single stranded template. 0.1 pmole of this primed M13 was incubated in 20 mM Tris.HCl, pH 7.5, 10 mM MgCl2, 20 mM KCl and 2 mM dithiothreitol at 37° C. in the presence of polymerase in a final volume of 12 μl. Aliquots of 3 μl each were removed at 0, 2.5, 10 and 30 minutes into an equal volume of deionized formamide containing 1 mM EDTA, 0.1% xylene cyanol and 0.1% bromophenol blue and placed on ice. After heating at 95° C. for 5 minutes, one-half of the sample was loaded onto an 18% polyacrylamide, 7 M urea, Tris-borate-EDTA gel. […]

B1: Single subunit recombinant Pol α: recombinant human DNA polymerase α catalytic polypeptide (180 kDa) immunopurified from AcHDPα infected Sf9 cells (protein)
chain: MAPVHGDDSLSDSGSFVSSRARREKKSKKGRQEALERLKKAKAGEKYKYEVEDFTGVYEEVDEEQYSKLVQARQDDDWIVDDDGIGYVEDGREIFDDDLEDDALDADEKGKDGKARNKDKRNVKKLAVTKPNNIKSMFIACAGKKTADKAVDLSKDGLLGDILQDLNTETPQITPPPVMILKKKRSIGASPNPFSVHTATAVPSGKIASPVSRKEPPLTPVPLKRAEFAGDDVQVESTEEEQESGAMEFEDGDFDEPMEVEEVDLEPMAAKAWDKESEPAEEVKQEADSGKGTVSYLGSFLPDVSCWDIDQEGDSSFSVQEVQVDSSHLPLVKGADEEQVFHFYWLDAYEDQYNQPGVVFLFGKVWIESAETHVSCCVMVKNIERTLYFLPREMKIDLNTGKETGTPISMKDVYEEFDEKIATKYKIMKFKSKPVEKNYAFEIPDVPEKSEYLEVKYSAEMPQLPQDLKGETFSHVFGTNTSSLELFLMNRKIKGPCWLEVKSPQLLNQPVSWCKVEAMALKPDLVNVIKDVSPPPLVVMAFSMKTMQNAKNHQNEIIAMAALVHHSFALDKAAPKPPFQSHFCVVSKPKDCIFPYAFKEVIEKKNVKVEVAATERTLLGFFLAKVHKIDPDIIVGHNIYGFELEVLLQRINVCKAPHWSKIGRLKRSNMPKLGGRSGFGERNATCGRMICDVEISAKELIRCKSYHLSELVQQILKTERVVIPMENIQNMYSESSQLLYLLEHTWKDAKFILQIMCELNVLPLALQITNIAGNIMSRTLMGGRSERNEFLLLHAFYENNYIVPDKQIFRKPQQKLGDEDEEIDGDTNKYKKGRKKAAYAGGLVLDPKVGFYDKFILLLDFNSLYPSIIQEFNICFTTVQRVASEAQKVTEDGEQEQIPELPDPSLEMGILPREIRKLVERRKQVKQLMKQQDLNPDLILQYDIRQKALKLTANSMYGCLGFSYSRFYAKPLAALVTYKGREILMHTKEMVQKMNLEVIYGDTDSIMINTNSTNLEEVFKLGNKVKSEVNKLYKLLEIDIDGVFKSLLLLKKKKYAALVVEPTSDGNYVTKQELKGLDIVRRDWCDLAKDTGNFVIGQILSDQSRDTIVENIQKRLIEIGENVLNGSVPVSQFEINKALTKDPQDYPDKKSLPHVHVALWINSQGGRKVKAGDTVSYVICQDGSNLTASQRAYAPEQLQKQDNLTIDTQYYLAQQIHPVVARICEPIDGIDAVLIATWLGLDPTQFRVHHYHKDEENDALLGGPAQLTDEEKYRDCERFKCPCPTCGTENIYDNVFDGSGTDMEPSLYRCSNIDCKASPLTFTVQLSNKLIMDIRRFIKKYYDGWLICEEPTCRNRTRHLPLQFSRTGPLCPACMKATLQPEYSDKSLYTQLCFYRYIFDAECALEKLTTDHEKDKLKKQFFTPKVLQDYRKLKNTAEQFLSRSGYSEVNLSKLFAGCAVKS
In the case of B1, the Kcat [1] is reported as 1.6 s⁻¹, the Km ([1]; 10 mM MgCl2, pH 8.0, read-out: Km (dNTP)) is reported as 1.2 µM and the Km ([1]; read-out: Km (DNA in nucleotide)) is reported as 190 µM. For the same molecule, the Km [2] was 0.4 µM, the “Thermostability, % activity after 30 min at 37° C.” value [3] was 68% and the Mutant frequency [4] was 300 ×10^−4. For the same molecule, the Error rate [5] was 1/4900, the Mutant frequency ([5]; blue plaques) was 370 ×10^−6 and the Error rate [6] was 1/1800. The Mutant frequency ([6]; blue plaques) was 170 ×10^−5 and the “3′-5′ exonuclease activity on matched and mismatched primer-template” value [7] was “no apparent 3′-5′ exonuclease was detected”.

— patent US6670161B1, “Compositions and methods for template-dependent enzymatic synthesis of nucleic acid” (The Board of Trustees of the Leland Stanford Jr. University, priority 1991, dated 2003)
